Data: paper PMC314469, “Protein Interaction Networks by Proteome Peptide Scanning” (PLoS Biology, 2004)

T1: amphyphisin SH3 (AMPH_HUMAN), P49418
T1 chain: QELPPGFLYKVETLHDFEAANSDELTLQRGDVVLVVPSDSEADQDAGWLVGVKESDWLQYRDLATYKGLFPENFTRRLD


Columns and labels:
[1] = target: endophilin SH3 (SH3G2_HUMAN), Q99962; experiment: SPOT array
[2] = target: T1, amphyphisin SH3 (AMPH_HUMAN), P49418; experiment: SPOT array

normalised SPOT signal, Boehringer light units (BLU); mean over the file's lines of this peptide [1]	normalised SPOT signal, Boehringer light units (BLU); mean over the file's lines of this peptide [2]	Binder
0	31.6	SGATLKRPMEFEAA [Q9H9L7 3-16]
647	54	TTTPPTKPPSFNLH [Q99966 72-86]
98.9	42.3	VSARPEKPPGQVTR [P35475 539-553]
196	31.3	TYQHLRRPRGLSSL [O60721 37-50]
346	64	TWQGLRRPPSVLGH [Q9C094 1911-1924]
4.2	-0	TSPAPHRPPKRVKA [Q9NRC7 337-350]
210	32.4	TSFEPRRPPPLRPG [Q9P2S2 1586-1599]
46.2	30.5	VEELLRRPMDSLDS [P42229 764-777]
4930	24.7	TTPPPGRPPAPSSE [Q96KN1 287-301]
51.8	7.4	VDNTIKRPNPAPGT [Q9UQ13 68-81]
344	126	VSPGPIRPIKQISD [Q14184 22-35]
267	32.8	VAWHPKRPLLAFAS [Q96J01 313-326]
26.9	28.3	SGKAFRRPSDLFRH [Q9NPV1 31-44]
60.8	25.3	TVNLFKRPLPKSKP [Q9UNP7 5-18]
2500	1740	SGGRPARPDRGPEP [Q92914 53-66]
14100	5540	TSAPPSRPPPPRAT [Q9UKN4 408-422]
254	1280	VSPGPIRPIRQISD [Q14183 21-34]
26.8	33.9	TSLSLRRPPGPASQ [Q15477 130-143]
61.6	42.1	AAVTLKRPPPYQWD [Q9NRJ4 1113-1126]
189	119	VSRDITRPPKTVAT [Q14425 672-685]
9.5	53.1	VSLALVRPSKMGLS [O15403 466-479]

normalised SPOT signal, Boehringer light units (BLU); mean over the file's lines of this peptide [1]	normalised SPOT signal, Boehringer light units (BLU); mean over the file's lines of this peptide [2]	Binder
913	1000	TRYSPYRPYRSVHQ [O60281 946-959]
16.2	29.4	TTVLIRRPDLRYQL [Q02410 746-759]
1040	47.2	VARSPKRPAWGSRR [Q9P1W0 38-51]
430	2520	VASGPSRPGREEHI [Q04671 237-250]
54.7	56.7	TSPTFRRPKTLRLR [P29316 42-55]
4710	58.3	SGPPPLRPPLPAAA [P22004 21-35]
150	118	TTKVIRRPRRGRMG [O75334 571-584]
684	36.5	TSWMPRRPSSPLKE [Q9H2L5 83-96]
3650	30	VSRLPKRPEPSPPL [Q15515 17-30]
630	151	VAPRPARPPGDLGP [O00144 174-188]
74.4	30.1	TTVLIKRPDLKYQL [Q99767 658-671]
806	34.9	TTVRPAKPPVVDRS [O95630 222-236]
166	189	TYTAPPRPPKKREY [Q9P1Z0 111-124]
89.9	18.2	VATDLGRPARSATG [Q96JQ0 2039-2052]
11100	3160	TTRRPPRPPGSSRK [Q9C0H3 154-168]
67.6	57.4	TSGSFRRPESPRPR [O15054 552-565]
609	75.4	VAEPPPRPPPPPPP [Q9NZM4 1290-1304]
4010	220	TSPAPHRPPKRGPL [Q9UQD1 353-366]
138	84.9	TSAVLRRPQKGRLA [Q13135 548-561]
715	691	TYSLLRRPFRQVLA [Q96P69 293-306]
186	161	TSVPLARPLRTSEE [O94942 425-438]
